Source: article PMC5122317

Target: iRFP (Rhodopseudomonas palustris)
Assay: SEC

## iRFP
  stoichiometry N: 1.92 fold
